Results reported in patent US20080241098A1 (Pfizer, published 2008).

Molecular target: T1, human MU-1 Ig fusion protein (human, UniProt Q9HBE5 20-235)
T1 construct: also called MUFc; IL-21R; not shown: Ig part of the fusion protein
Experiment: Biacore, MU-1 Ig fusion protein immobilized on chip
Protocol: Both human and murine Ig fusion proteins were constructed and immobilized on Biacore chips in an effort to identify the ligand for MU-1. A variety of cell culture conditioned media as well as a panel of known cytokines were evaluated for binding to MU-1. Some cytokines were also tested in combination with other receptor chains in the family to consider the possibility that MU-1 may require a second receptor chain for ligand binding. The following cytokines were tested and found to be negative for MU-1 binding: mIL-2, hIL-2, hIL-15, mIL-7, TSLP, TSLP+IL-7, TSLP+IL-7R, TSLP+IL-7g, TSLP+IL-2, TSLP+IL-2+IL-2Rbeta, IL2-Rbeta, IL-2Rgamma, IL-7R, IL-2+IL-2Rbeta, IL-2+IL-2Rgamma, IL-15+IL-2Rbeta, IL-15+IL-2Rgamma, IL-7+IL-2Rgamma, IL-2+IL-7R, IL-15+IL-7R, IL-7+IL-7R. Known receptors have been immobilized as well and tested for MUFc binding with negative results. IL-15 will bind to IL-2Rb but not IL-2Rg or MUFc.

T1 sequence (Q9HBE5 20-235): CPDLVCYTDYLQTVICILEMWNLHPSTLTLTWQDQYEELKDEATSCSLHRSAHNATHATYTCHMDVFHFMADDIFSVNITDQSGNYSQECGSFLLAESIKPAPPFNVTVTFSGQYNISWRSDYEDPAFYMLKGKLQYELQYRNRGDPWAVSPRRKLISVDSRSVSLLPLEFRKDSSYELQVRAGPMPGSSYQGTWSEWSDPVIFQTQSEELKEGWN

Row | binding result | Binder
1 | no binding | mIL-2 (ligand, murine, UniProt P04351 21-169, looked up) APTSSSTSSSTAEAQQQQQQQQQQQQHLEQLLMDLQELLSRMENYRNLKLPRMLTFKFYLPKQATELKDLQCLEDELGPLRHVLDLTQSKSFQLEDAENFISNIRVTVVKLKGSDNTFECQFDDESATVVDFLRRWIAFCQSIISTSPQ
2 | no binding | mIL-7 (ligand, murine, UniProt P10168 26-154, looked up) ECHIKDKEGKAYESVLMISIDELDKMTGTDSNCPNNEPNFFRKHVCDDTKEAAFLNRAARKLKQFLKMNISEEFNVHLLTVSQGTQTLVNCTSKEEKNVKEQKKNDACFLKRLLREIKTCWNKILKGSI
